What all share (experiment): fluorescence polarisation; 100 nM FITC-labeled phosphopeptide with increasing hsNbs1(384); room temperature, 15 min incubation; 25 mM HEPES pH 7.4, 150 mM NaCl, 1 mM EDTA, 2 mM DTT, 0.05% Tween20, 0.1% BSA; one-site model
What all share (conditions): both partners purified
(In general: Polarisation of emitted light reports the rotation of a fluorescent probe.)

For experiment [1], the target named is T1, hsNbs1(384) K125A (human, UniProt O60934 1-384, K125A).
T1 construct: source: E. coli BL21(DE3) pLacI, purified as the wild type
T1 sequence (looked up): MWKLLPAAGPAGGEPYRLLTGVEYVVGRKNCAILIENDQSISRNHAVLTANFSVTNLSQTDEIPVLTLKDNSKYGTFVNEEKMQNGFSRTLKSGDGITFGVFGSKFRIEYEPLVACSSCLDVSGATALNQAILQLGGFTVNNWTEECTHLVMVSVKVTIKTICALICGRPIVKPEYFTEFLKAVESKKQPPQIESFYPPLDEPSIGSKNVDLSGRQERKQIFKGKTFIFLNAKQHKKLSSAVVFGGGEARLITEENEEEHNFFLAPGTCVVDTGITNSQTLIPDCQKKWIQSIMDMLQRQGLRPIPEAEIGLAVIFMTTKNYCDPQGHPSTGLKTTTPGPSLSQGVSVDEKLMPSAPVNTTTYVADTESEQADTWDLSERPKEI

Experiment [2] addresses T2, hsNbs1(384) R43A (human, UniProt O60934 1-384, R43A).
T2 construct: source: E. coli BL21(DE3) pLacI, purified as the wild type
T2 sequence (looked up): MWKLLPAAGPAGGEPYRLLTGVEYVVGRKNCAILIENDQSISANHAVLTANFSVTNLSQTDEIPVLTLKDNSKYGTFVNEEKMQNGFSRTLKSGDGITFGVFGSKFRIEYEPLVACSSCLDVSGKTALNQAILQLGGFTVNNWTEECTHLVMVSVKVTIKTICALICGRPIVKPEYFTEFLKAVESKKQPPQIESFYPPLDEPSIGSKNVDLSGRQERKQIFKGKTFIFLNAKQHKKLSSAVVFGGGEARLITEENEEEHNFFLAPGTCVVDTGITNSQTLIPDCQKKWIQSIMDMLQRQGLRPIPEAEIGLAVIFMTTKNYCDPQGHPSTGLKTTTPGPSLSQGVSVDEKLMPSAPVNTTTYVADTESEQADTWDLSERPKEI

For experiment [3], the target named is T3, hsNbs1(384) K160A (human, UniProt O60934 1-384, K160A).
T3 construct: source: E. coli BL21(DE3) pLacI, purified as the wild type
T3 sequence (looked up): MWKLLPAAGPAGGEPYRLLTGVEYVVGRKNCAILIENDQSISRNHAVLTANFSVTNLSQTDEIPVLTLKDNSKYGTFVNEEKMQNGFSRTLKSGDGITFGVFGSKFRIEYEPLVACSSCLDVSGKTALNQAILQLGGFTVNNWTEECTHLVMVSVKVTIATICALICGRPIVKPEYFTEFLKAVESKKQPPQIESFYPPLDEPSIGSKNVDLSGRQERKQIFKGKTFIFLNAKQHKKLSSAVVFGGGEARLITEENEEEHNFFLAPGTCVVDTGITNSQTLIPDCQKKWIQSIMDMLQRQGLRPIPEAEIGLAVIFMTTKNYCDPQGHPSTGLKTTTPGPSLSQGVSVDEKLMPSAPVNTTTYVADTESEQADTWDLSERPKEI

In experiment [4] the target is T4, hsNbs1(384) K29A (human, UniProt O60934 1-384, K29A).
T4 construct: source: E. coli BL21(DE3) pLacI, purified as the wild type
T4 sequence (looked up): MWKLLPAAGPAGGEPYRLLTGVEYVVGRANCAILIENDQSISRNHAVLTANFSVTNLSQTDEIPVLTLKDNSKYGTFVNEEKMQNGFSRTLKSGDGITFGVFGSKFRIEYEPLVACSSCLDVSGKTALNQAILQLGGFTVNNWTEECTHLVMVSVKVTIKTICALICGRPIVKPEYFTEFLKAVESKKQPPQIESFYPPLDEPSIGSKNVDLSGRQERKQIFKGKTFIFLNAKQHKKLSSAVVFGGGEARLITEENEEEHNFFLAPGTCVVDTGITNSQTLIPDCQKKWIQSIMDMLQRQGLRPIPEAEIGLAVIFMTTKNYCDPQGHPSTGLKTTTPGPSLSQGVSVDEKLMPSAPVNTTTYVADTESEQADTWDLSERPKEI

The target in experiment [5] is T5, hsNbs1(384) K73A (human, UniProt O60934 1-384, K73A).
T5 construct: source: E. coli BL21(DE3) pLacI, purified as the wild type
T5 sequence (looked up): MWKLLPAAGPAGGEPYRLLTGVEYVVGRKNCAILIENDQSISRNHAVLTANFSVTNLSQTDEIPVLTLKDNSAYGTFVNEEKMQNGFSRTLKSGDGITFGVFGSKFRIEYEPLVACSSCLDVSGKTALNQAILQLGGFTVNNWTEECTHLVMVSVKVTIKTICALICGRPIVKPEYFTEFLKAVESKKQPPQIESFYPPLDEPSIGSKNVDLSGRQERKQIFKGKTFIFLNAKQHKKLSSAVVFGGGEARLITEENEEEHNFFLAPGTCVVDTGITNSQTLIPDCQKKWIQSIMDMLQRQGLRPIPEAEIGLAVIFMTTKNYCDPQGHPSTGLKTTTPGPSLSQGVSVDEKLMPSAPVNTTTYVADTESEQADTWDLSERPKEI

Square brackets hold non-standard residues; d marks the D form. Primed or numbered codes have the meaning given here. Ends that are not written are not given here. FITC′ = fluorescein isothiocyanate label; pT = C[C@@H](OP(=O)(O)O)[C@H](N)C(=O)O

The record followed here is publication PMC8079451, “Phosphopeptide interactions of the Nbs1 N-terminal FHA-BRCT1/2 domains” (Scientific Reports, 2021).

In general, Kd refers to the equilibrium constant for the complex coming apart. Turning to {FITC′}-GGRYIPPN[pT]PENFWEVGFPEEQ [hsCtIP phosphopeptide R841YIPPNpTPENFWEVGFPEEQ860 with N-terminal FITC-Gly-Gly], the dissociation constant (Kd) in experiment [1] turned out to be 39.6 µM; in experiment [2], 29.2 µM; in experiment [3], 133 µM; in experiment [4] it was 26 µM; in experiment [5], 32.9 µM.
